In patent publication US20130281360A1:
Read-outs that look alike come from different tables or passages of the source.

How the values were obtained:
[1] = biological target: E. coli MG1655 SPase (LepB) with Ala at residue 84, in the strain (Escherichia coli K-12 MG1655) (UniProt P00803); test: cell-based or functional assay
[2] = biological target: E. coli MG1655 SPase (LepB) with Arg at residue 84, in the strain (Escherichia coli K-12 MG1655) (UniProt P00803); test: cell-based or functional assay
[3] = biological target: E. coli MG1655 SPase (LepB) with Asn at residue 84, in the strain (Escherichia coli K-12 MG1655) (UniProt P00803); test: cell-based or functional assay
[4] = biological target: E. coli MG1655 SPase (LepB) with Asp at residue 84, in the strain (Escherichia coli K-12 MG1655) (UniProt P00803); test: cell-based or functional assay
[5] = biological target: E. coli MG1655 SPase (LepB) with Cys at residue 84, in the strain (Escherichia coli K-12 MG1655) (UniProt P00803); test: cell-based or functional assay
[6] = biological target: E. coli MG1655 SPase (LepB) with Gln at residue 84, in the strain (Escherichia coli K-12 MG1655) (UniProt P00803); test: cell-based or functional assay
[7] = biological target: E. coli MG1655 SPase (LepB) with Glu at residue 84, in the strain (Escherichia coli K-12 MG1655) (UniProt P00803); test: cell-based or functional assay
[8] = biological target: E. coli MG1655 SPase (LepB) with Gly at residue 84, in the strain (Escherichia coli K-12 MG1655) (UniProt P00803); test: cell-based or functional assay
[9] = biological target: E. coli MG1655 SPase (LepB) with His at residue 84, in the strain (Escherichia coli K-12 MG1655) (UniProt P00803); test: cell-based or functional assay
[10] = biological target: E. coli MG1655 SPase (LepB) with Ile at residue 84, in the strain (Escherichia coli K-12 MG1655) (UniProt P00803); test: cell-based or functional assay
[11] = biological target: E. coli MG1655 SPase (LepB) with Leu at residue 84, in the strain (Escherichia coli K-12 MG1655) (UniProt P00803); test: cell-based or functional assay
[12] = biological target: E. coli MG1655 SPase (LepB) with Lys at residue 84, in the strain (Escherichia coli K-12 MG1655) (UniProt P00803); test: cell-based or functional assay
[13] = biological target: E. coli MG1655 SPase (LepB) with Met at residue 84, in the strain (Escherichia coli K-12 MG1655) (UniProt P00803); test: cell-based or functional assay
[14] = biological target: E. coli MG1655 SPase (LepB) with Phe at residue 84, in the strain (Escherichia coli K-12 MG1655) (UniProt P00803); test: cell-based or functional assay
[15] = biological target: E. coli MG1655 SPase (LepB) with Thr at residue 84, in the strain (Escherichia coli K-12 MG1655) (UniProt P00803); test: cell-based or functional assay
[16] = biological target: E. coli MG1655 SPase (LepB) with Trp at residue 84, in the strain (Escherichia coli K-12 MG1655) (UniProt P00803); test: cell-based or functional assay
[17] = biological target: E. coli MG1655 SPase (LepB) with Tyr at residue 84, in the strain (Escherichia coli K-12 MG1655) (UniProt P00803); test: cell-based or functional assay
[18] = biological target: E. coli MG1655 SPase (LepB) with Val at residue 84, in the strain (Escherichia coli K-12 MG1655) (UniProt P00803); test: cell-based or functional assay
[19] = biological target: E. coli MG1655 SPase (LepB), wild type, in the strain (Escherichia coli K-12 MG1655) (UniProt P00803); test: cell-based or functional assay
[20] = biological target: E. coli SPase (LepB) P84S, in strain PAS0232 (Escherichia coli K-12 MG1655) (UniProt P00803); test: cell-based or functional assay
[21] = biological target: P. aeruginosa PAO1 SPase (LepB) P84L, in the strain lepB(P84L) P. aeruginosa PAO1 (Pseudomonas aeruginosa PAO1) (UniProt Q9I5G7); test: cell-based or functional assay
[22] = biological target: P. aeruginosa PAO1 SPase (LepB), wild type, in the strain (Pseudomonas aeruginosa PAO1) (UniProt Q9I5G7); test: cell-based or functional assay
[23] = biological target: P. aeruginosa SPase (LepB) P84S, in strain PAS2006 (Pseudomonas aeruginosa PAO1) (UniProt Q9I5G7); test: cell-based or functional assay
[24] = biological target: S. aureus NCTC 8325 SPase (SpsB), wild type, in the strain (Staphylococcus aureus NCTC 8325); test: cell-based or functional assay
[25] = biological target: S. aureus SPase (SpsB) P29S, in strain PAS8001 (Staphylococcus aureus NCTC 8325); test: cell-based or functional assay
[26] = biological target: S. epidermidis RP62A signal peptidase IB (SpsIB), wild type, in the strain (Staphylococcus epidermidis RP62A); test: cell-based or functional assay
[27] = biological target: S. epidermidis SpsIB S29P, in strain PAS9001 (Staphylococcus epidermidis RP62A); test: cell-based or functional assay
[28] = biological target: S. epidermidis SpsIB S31P, in strain PAS9002 (Staphylococcus epidermidis RP62A); test: cell-based or functional assay
[29] = biological target: E. coli MG1655 SPase (LepB) with His at residue 84, in the strain (Escherichia coli K-12 MG1655) (UniProt P00803); test: cell-based or functional assay; remark: listed apart in the source
[30] = biological target: E. coli MG1655 SPase (LepB) with Phe at residue 84, in the strain (Escherichia coli K-12 MG1655) (UniProt P00803); test: cell-based or functional assay; remark: listed apart in the source
[31] = biological target: detergent-solubilized full-length His-tagged E. coli SPase, P84S variant (Escherichia coli) (UniProt P00803); test: steady-state binding by increase of arylomycin fluorescence, detergent-solubilized full-length SPase
[32] = biological target: detergent-solubilized full-length His-tagged E. coli SPase, wild type (Escherichia coli) (UniProt P00803); test: as above
[33] = biological target: full-length His-tagged S. aureus SPase (SpsB), P29S mutant (Staphylococcus aureus NCTC 8325); test: steady-state binding by increase of arylomycin fluorescence, full-length SPase, buffer with 10% glycerol
[34] = biological target: full-length His-tagged S. aureus SPase (SpsB), wild type (Staphylococcus aureus NCTC 8325); test: as above
[35] = biological target: P84S variant of the truncated E. coli SPase (Δ2-75) (Escherichia coli K-12 MG1655) (UniProt P00803); test: steady-state binding by increase of arylomycin fluorescence (ex 320 nm, em 410 nm), SPase in n-octyl-β-glucopyranoside micelles
[36] = biological target: truncated wild type E. coli SPase that lacks the N-terminal membrane helices (Δ2-75) (Escherichia coli K-12 MG1655) (UniProt P00803); test: as above
[37] = biological target: full-length His-tagged S. aureus SPase (SpsB), P29S mutant (Staphylococcus aureus NCTC 8325); test: equilibrium binding by the increase of arylomycin fluorescence (ex 320 nm, em 410 nm) with full-length His-tagged S. aureus SPase
[38] = biological target: full-length His-tagged S. aureus SPase (SpsB), wild type (Staphylococcus aureus NCTC 8325); test: as above
[39] = biological target: P84S variant of the truncated E. coli SPase (Δ2-75) (Escherichia coli K-12 MG1655) (UniProt P00803); test: steady state binding by the increase of arylomycin fluorescence (ex 320 nm, em 410 nm) with soluble N-terminally truncated E. coli SPase
[40] = biological target: truncated wild type E. coli SPase that lacks the N-terminal membrane helices (Δ2-75) (Escherichia coli K-12 MG1655) (UniProt P00803); test: as above
[41] = biological target: detergent-solubilized full-length His-tagged E. coli SPase, P84S variant (Escherichia coli) (UniProt P00803); test: equilibrium binding by the increase of arylomycin fluorescence (ex 320 nm, em 410 nm) with detergent-solubilized full-length E. coli SPase
[42] = biological target: detergent-solubilized full-length His-tagged E. coli SPase, wild type (Escherichia coli) (UniProt P00803); test: as above

Substance: arylomycin C16 (peptide)
- MIC of arylomycin C16 for the E. coli strain with this residue 84 [1]: < 16 µg/mL
- MIC of arylomycin C16 for the E. coli strain with this residue 84 [2]: < 16 µg/mL
- MIC of arylomycin C16 for the E. coli strain with this residue 84 [3]: < 16 µg/mL
- MIC of arylomycin C16 for the E. coli strain with this residue 84 [4]: < 16 µg/mL
- MIC of arylomycin C16 for the E. coli strain with this residue 84 [5]: < 16 µg/mL
- MIC of arylomycin C16 for the E. coli strain with this residue 84 [6]: < 16 µg/mL
- MIC of arylomycin C16 for the E. coli strain with this residue 84 [7]: < 16 µg/mL
- MIC of arylomycin C16 for the E. coli strain with this residue 84 [8]: < 16 µg/mL
- MIC of arylomycin C16 for the E. coli strain with this residue 84 [9]: < 16 µg/mL
- MIC of arylomycin C16 for the E. coli strain with this residue 84 [10]: < 16 µg/mL
- MIC (µg/ml) of arylomycin C16 for the sensitive E. coli strain [11]: 0.5 µg/mL
- MIC of arylomycin C16 for the E. coli strain with this residue 84 [11]: < 16 µg/mL
- MIC of arylomycin C16 for the E. coli strain with this residue 84 [12]: < 16 µg/mL
- MIC of arylomycin C16 for the E. coli strain with this residue 84 [13]: < 16 µg/mL
- MIC of arylomycin C16 for the E. coli strain with this residue 84 [14]: < 16 µg/mL
- MIC of arylomycin C16 for the E. coli strain with this residue 84 [15]: < 16 µg/mL
- MIC of arylomycin C16 for the E. coli strain with this residue 84 [16]: < 16 µg/mL
- MIC of arylomycin C16 for the E. coli strain with this residue 84 [17]: < 16 µg/mL
- MIC of arylomycin C16 for the E. coli strain with this residue 84 [18]: < 16 µg/mL
- MIC (µg/mL) of arylomycin C16 for the strain [19]: > 128 µg/mL
- MIC (µg/ml) of arylomycin C16 for the resistant E. coli strain [19]: > 64 µg/mL
- MIC of arylomycin C16 for the E. coli strain with this residue 84 [19]: > 256 µg/mL
- MIC (µg/mL) of arylomycin C16 for the strain [20]: 2 µg/mL
- MIC of arylomycin C16 for the E. coli strain with this residue 84 [20]: < 16 µg/mL
- MIC (µg/ml) of arylomycin C16 for the sensitive P. aeruginosa strain [21]: 8 µg/mL
- MIC (µg/mL) of arylomycin C16 for the strain [22]: > 128 µg/mL
- MIC (µg/ml) of arylomycin C16 for the resistant P. aeruginosa strain [22]: > 64 µg/mL
- MIC (µg/mL) of arylomycin C16 for the strain [23]: 8 µg/mL
- MIC (µg/mL) of arylomycin C16 for the strain [24]: > 128 µg/mL
- MIC (µg/ml) of arylomycin C16 for the resistant S. aureus strain [24]: > 64 µg/mL
- MIC (µg/mL) of arylomycin C16 for the strain [25]: 2 µg/mL
- MIC (µg/ml) of arylomycin C16 for the sensitive S. aureus strain [25]: 2 µg/mL
- MIC (µg/mL) of arylomycin C16 for the strain [26]: 0.25 µg/mL
- MIC (µg/ml) of arylomycin C16 for the sensitive S. epidermidis strain [26]: 0.5 µg/mL
- MIC (µg/mL) of arylomycin C16 for the strain [27]: 8 µg/mL
- MIC (µg/ml) of arylomycin C16 for the resistant S. epidermidis strain [27]: 8 µg/mL
- fold elevation of the MIC over the wild type strain [27]: 32 fold
- MIC (µg/mL) of arylomycin C16 for the strain [28]: > 128 µg/mL
- fold elevation of the MIC over the wild type strain [28]: > 256 fold
- MIC of arylomycin C16 for the E. coli strain with this residue 84 [29]: 4 µg/mL
- MIC of arylomycin C16 for the E. coli strain with this residue 84 [30]: 2 µg/mL
- Kd [31]: 5.7 nM
- Kd [32]: 60 nM
- Kd [33]: 130 nM
- Kd [34]: 1280 nM
- Kd [35]: 39 nM
- Kd [36]: 979 nM
- EC50 (read off the curve) [37]: 200 nM
- EC50 (read off the curve) [38]: 2000 nM
- EC50 (read off the curve) [39]: 100 nM
- EC50 (read off the curve) [40]: 2000 nM
- EC50 (read off the curve) [41]: 10 nM
- Kd [41]: 5.73 nM
- EC50 (read off the curve) [42]: 100 nM
